T1: rat matriptase-2 ECD protein his tag (rat, UniProt Q9DBI0 80-811 (mouse entry))
T1 construct: aa 80-811 of NCBI XP_006242057.1 with C-terminal linker and His tag; also called rat MTP-2 ECD
T1 chain: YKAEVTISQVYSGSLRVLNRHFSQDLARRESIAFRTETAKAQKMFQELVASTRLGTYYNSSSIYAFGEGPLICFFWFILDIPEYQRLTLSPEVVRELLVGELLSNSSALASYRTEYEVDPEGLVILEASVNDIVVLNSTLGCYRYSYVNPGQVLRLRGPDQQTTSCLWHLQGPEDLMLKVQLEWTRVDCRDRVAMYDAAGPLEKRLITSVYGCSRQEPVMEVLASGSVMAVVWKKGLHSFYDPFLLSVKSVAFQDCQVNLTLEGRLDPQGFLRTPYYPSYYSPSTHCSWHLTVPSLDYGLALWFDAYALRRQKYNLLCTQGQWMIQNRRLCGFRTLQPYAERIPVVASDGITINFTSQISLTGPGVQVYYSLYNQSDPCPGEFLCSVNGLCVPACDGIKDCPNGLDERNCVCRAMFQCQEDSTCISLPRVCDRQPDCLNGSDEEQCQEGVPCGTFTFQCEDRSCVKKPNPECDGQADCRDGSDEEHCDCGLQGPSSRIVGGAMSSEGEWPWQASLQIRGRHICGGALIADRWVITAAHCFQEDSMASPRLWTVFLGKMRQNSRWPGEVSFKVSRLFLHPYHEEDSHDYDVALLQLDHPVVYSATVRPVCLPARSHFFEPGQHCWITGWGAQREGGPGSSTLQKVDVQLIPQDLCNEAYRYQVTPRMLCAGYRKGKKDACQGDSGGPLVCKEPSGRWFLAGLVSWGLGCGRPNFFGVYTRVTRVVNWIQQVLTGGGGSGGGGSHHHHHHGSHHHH

T2: mouse matriptase-2 ECD protein his tag (mouse, UniProt Q9DBI0 80-811)
T2 construct: aa 80-811 of Q9DBI0 with C-terminal linker and His tag; also called mouse MTP-2 ECD; moMTP-2
T2 sequence: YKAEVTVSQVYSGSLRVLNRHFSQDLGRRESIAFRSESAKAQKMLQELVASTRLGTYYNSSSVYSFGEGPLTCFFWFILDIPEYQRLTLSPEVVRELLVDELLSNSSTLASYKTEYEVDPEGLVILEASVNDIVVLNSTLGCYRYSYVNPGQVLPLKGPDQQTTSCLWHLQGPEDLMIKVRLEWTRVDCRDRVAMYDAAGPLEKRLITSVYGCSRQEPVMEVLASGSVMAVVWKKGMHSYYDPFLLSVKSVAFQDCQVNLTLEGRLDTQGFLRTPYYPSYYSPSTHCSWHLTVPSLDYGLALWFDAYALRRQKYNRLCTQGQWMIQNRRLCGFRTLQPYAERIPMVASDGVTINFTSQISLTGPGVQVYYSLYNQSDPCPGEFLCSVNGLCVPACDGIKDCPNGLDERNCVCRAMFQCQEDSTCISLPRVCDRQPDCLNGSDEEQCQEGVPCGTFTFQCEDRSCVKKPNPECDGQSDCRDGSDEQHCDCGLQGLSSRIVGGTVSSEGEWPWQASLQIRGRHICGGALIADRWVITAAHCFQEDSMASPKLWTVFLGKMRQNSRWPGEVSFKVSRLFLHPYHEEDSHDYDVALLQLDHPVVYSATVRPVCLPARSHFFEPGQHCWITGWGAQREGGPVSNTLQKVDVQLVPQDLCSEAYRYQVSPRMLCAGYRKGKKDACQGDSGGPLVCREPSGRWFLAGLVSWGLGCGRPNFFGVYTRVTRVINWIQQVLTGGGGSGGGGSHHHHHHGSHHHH

T3: cyno matriptase-2 ECD protein his tag (cynomolgus, UniProt Q8IU80 84-811 (human entry))
T3 construct: aa 73-800 of A0A2K5VAP0 with C-terminal linker and His tag; also called cynomolgus MTP-2 ECD
T3 chain: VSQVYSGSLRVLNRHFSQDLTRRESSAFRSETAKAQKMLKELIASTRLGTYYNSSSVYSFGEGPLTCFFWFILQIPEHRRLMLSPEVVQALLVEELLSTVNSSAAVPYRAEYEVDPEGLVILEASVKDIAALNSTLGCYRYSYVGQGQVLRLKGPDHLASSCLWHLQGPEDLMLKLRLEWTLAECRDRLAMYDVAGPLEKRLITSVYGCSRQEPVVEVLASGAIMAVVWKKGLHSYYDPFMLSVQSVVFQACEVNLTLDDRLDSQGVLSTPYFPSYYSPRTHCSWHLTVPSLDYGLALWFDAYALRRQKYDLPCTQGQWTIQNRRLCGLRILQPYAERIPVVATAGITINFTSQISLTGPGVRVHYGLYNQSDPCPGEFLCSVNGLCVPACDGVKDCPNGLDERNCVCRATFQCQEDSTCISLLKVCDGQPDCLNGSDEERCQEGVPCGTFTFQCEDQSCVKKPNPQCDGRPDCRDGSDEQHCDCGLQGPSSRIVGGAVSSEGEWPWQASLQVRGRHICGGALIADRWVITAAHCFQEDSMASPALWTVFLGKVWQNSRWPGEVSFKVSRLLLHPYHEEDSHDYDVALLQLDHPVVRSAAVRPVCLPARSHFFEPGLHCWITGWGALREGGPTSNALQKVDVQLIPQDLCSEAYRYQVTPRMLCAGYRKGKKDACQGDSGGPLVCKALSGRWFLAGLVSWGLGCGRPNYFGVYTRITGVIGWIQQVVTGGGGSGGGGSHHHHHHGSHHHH


Tests used:
Assay in all cases: SPR, his-tagged MTP-2 ECD protein (Table W)
[1] = target: T1, rat matriptase-2 ECD protein his tag
Procedure: (§1) Off-rate screening was performed by surface plasmon resonance (SPR), using a Biacore 8K system (GE Healthcare). Anti-human Fc mix (˜1000 RU) were immobilised in both active and reference channels in HBS-P+ buffer (GE BR100671) pH 7.4. Anti-MTP-2 hulgG4PE antibodies were then captured for 60 sec at 10 μl/min at 1 μg/ml concentration (approximatively 35 and 50 RU were captured) only on the active channel. MTP-2 ECD protein analytes were then injected (at 100, 25, 6.25, 1.56 and 0 nM concentrations) for 120 sec (association time) at 30 μl/min and dissociation monitored for 600 sec. Multiple cycle kinetics mode was used with all 8 channels being used. Reference and background were subtracted from the sensorgrams for each antibody and data was fitted using a 1:1 interaction model in the Biacore evaluation software. Rmax, ka, kd globally fitted, RI=0.
(§2) NORI-011, NORI-008, NORI-003 and NORI-006 were all found to have cross-reactive binding to human, mouse, cyno and rat MTP-2 ECD proteins. […] The true KD value for NORI-008 could not be measured accurately for human or mouse MTP-2 due to a very slow off-rate.

[2] = target: T2, mouse matriptase-2 ECD protein his tag
Procedure: as §1, §2

[3] = target: T3, cyno matriptase-2 ECD protein his tag
Procedure: as §1, §2

Kd [1]	Kd [2]	Kd [3]	Binder
3.01 nM	9 nM	2.17 nM	NORI-011 (antibody, human IgG4 S228P, lambda, human IgG4PE, lambda; NORI-010 with a P124S mutation in the VH domain) heavy: not shown light: QSALTQPPSASGSPGQSVTISCTGTSSDVGFYNFVSWYQQHPDKAPKVMIYEVSKRPSGVPDRFSGSKSGNTASLTVSGLQAEDEADYYCSSYAGSNKVVFGGGTKLTVLGQPKAAPSVTLFPPSSEELQANKATLVCLISDFYPGAVTVAWKADSSPVKAGVETTTPSKQSNNKYAASSYLSLTPEQWKSHRSYSCQVTHEGSTVEKTVAPTECS
7.64 nM		0.0104 nM	NORI-008 (antibody, human IgG4 S228P, kappa, V domains shown, human IgG4PE, kappa, in the in vitro assays; a mouse IgG1 format was used in one in vivo study only; also called NORI-008 hulgG4PE; NORI-008 IgG) VH: QVQLQESGPGLVKPSETLSLTCSVSGGSVSSGRYYWTWIRQPPGKGLEWIGYISNSGNTNYNPSLKSRVTISLDTSKKQFSLSLSAVTAADTAVYYCARGFIYDYWFDPWGQGSLVTVSS VL: DSQMTQSPSSLSASVGDRVTITCQASQDIDNYLNWYQQRPGKAPKLLIYDASKLETGVPSRFSGSGSGTDFTFTISSLQPEDFATYYCQQYGNLPITFGQGTRLDIKR

Further lines, the binder ahead of its results:

Binder	Kd [1]	Kd [2]	Kd [3]
NORI-006 (antibody, human IgG4 S228P, kappa, V domains shown, human IgG4PE, kappa) VH: EVQLVESGGGLIKPGRSLRLSCTGSGFTFGDFGLSWFRQAPGKGLEWISFIRSKPYGGTTDYAASVKGRFTISRDDSKNVAYLQMNSLKTEDTAVYYCARNEILTGYYIFDYWGQGTLVTVSS VL: DIQMTQSPSSLSASLGDRVTITCQASQDINNYLNWYQVQPGKAPKLLIFDASILETGVPSRFSGSGSGTDFSFTISSLQPEDIATYYCQQYDNLPLTFGGGTKVDFKR	15.2 nM	27 nM	0.824 nM
NORI-003 (antibody, human IgG4 S228P, kappa, V domains shown, human IgG4PE, kappa; NORI-002 with the free cysteine of the VH domain mutated (printed as 'C49C')) VH: EVQLVESGGGLVKPGRSLRLSCTGSGFTFGDFGMSWFRQAPGKGLEWVGFIRSKPYGGTTDYAPSVRGRFSISRDDSKGIVYLQMNSLRTEDTAVYYCSRNEILTGYYIFDYWGQGTLVTVSS VL: DIQMTQSPSSLSASLGDRVTITCQASHDITNYLIWYQQKPGKAPRLLIFDASILETGVPSRFSGSGSGTDFTFTISSLQPEDFATYYCQQYYNLPLTFGGGTKVDIKR	19.2 nM	28.9 nM	1.76 nM

From patent US20230025129A1 (KYMAB, published 2023)
